Reference: patent US20200247894A1 (Regeneron, published 2020)
Each block holds one binder with its values, some of them ahead of it.

Columns and labels:
[1] = target: T1, Human IL2Rγ extracellular domain expressed with a C-terminal mouse IgG2a Fc tag (human); experiment: SPR Biacore 4000, anti-hFc-captured mAb, 25 C; computed with kd fixed at 1.00E-05
T1 construct: whole entry is the Fc-fused construct; also called hIL-2Rg-mFc
T1 chain: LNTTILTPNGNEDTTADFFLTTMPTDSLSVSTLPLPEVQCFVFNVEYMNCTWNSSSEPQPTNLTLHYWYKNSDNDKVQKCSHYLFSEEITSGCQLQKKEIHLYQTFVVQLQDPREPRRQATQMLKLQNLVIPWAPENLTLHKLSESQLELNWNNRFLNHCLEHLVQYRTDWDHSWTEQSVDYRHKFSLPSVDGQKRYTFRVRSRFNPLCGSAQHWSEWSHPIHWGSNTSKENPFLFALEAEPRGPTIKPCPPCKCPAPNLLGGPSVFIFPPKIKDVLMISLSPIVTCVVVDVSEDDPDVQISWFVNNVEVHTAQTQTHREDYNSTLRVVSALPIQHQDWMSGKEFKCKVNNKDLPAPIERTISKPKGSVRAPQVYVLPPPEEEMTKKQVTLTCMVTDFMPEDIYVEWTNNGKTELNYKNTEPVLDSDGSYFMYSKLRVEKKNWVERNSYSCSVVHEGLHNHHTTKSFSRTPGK
Procedure: (§1) Equilibrium dissociation constants (KD values) for IL-2Rγ binding to purified anti-IL2Rγ monoclonal antibodies were determined using a Biacore 4000 instrument equipped with a real-time surface plasmon resonance biosensor. All binding studies were performed in 10 mM HEPES, 150 mM NaCl, 3 mM EDTA, and 0.05% v/v Surfactant Tween-20, pH 7.4 (HBS-ET) running buffer at 25° C. and 37° C. The Biacore sensor surface was first derivatized by amine coupling with a monoclonal mouse anti-human Fc antibody (GE, # BR-1008-39) to capture anti-IL2Rγ monoclonal antibodies.
(§2) The dissociation of monoclonal antibody bound IL2Rγ reagents were monitored for 8-10 minutes in HBS-ET running buffer. Kinetic association (kₐ) and dissociation (kd) rate constants were determined by fitting the real-time sensorgrams to a 1:1 binding model using Scrubber 2.0c curve fitting software. Binding dissociation equilibrium constants (KD) and dissociative half-lives (t_{1/2}) were calculated from the kinetic rate constants as: […]

[2] = target: T1, Human IL2Rγ extracellular domain …; experiment: SPR Biacore 4000, anti-hFc-captured mAb, 37 C; no dissociation observed, kd manually fixed at 1.00E-05
[3] = target: T1, Human IL2Rγ extracellular domain …; experiment: SPR Biacore 4000, anti-hFc-captured mAb, 25 C; no dissociation observed, kd manually fixed at 1.00E-05
[4] = target: T1, Human IL2Rγ extracellular domain …; experiment: SPR Biacore 4000, anti-hFc-captured mAb, 25 C
Summary of the method: (§3)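 KD and dissociative half-life come from rate constants obtained by 1:1 binding-model fits of real-time sensorgrams. Antibodies sit on an anti-human Fc capture surface, with HBS-ET (pH 7.4) as running buffer and an 8-10 minute dissociation phase.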

[5] = target: T2, Rat IL2Rγ extracellular domain expressed with a C-terminal myc-myc-hexahistidine tag (rat); experiment: SPR Biacore 4000, anti-hFc-captured mAb, 25 C
T2 construct: whole entry is the tagged construct; also called rIL-2Rg-MMH; rat IL-2Rg-MMH
T2 chain: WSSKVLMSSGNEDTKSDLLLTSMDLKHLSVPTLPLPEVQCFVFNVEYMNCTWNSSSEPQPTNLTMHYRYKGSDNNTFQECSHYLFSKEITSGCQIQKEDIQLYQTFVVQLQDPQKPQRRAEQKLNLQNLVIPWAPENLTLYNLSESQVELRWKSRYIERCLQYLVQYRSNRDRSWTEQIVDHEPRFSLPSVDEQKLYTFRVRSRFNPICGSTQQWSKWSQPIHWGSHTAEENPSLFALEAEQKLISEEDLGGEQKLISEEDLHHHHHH
Summary of the method: as §3

[6] = target: T3, Mouse IL2Rγ extracellular domain expressed with a C-terminal myc-myc-hexahistidine tag (mouse); experiment: SPR Biacore 4000, anti-hFc-captured mAb, 25 C
T3 construct: whole entry is the tagged construct; also called mIL-2Rg-MMH
T3 chain: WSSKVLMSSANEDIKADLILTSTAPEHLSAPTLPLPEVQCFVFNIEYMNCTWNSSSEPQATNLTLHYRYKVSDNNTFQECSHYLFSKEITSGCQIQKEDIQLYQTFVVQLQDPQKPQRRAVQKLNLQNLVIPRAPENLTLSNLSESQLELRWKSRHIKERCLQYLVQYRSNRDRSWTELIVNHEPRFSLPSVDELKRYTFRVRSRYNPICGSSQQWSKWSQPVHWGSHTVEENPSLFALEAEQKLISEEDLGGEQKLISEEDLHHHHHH
Summary of the method: as §3

[7] = target: T1, Human IL2Rγ extracellular domain …; experiment: SPR Biacore 4000, anti-hFc-captured mAb, 37 C; computed with kd fixed at 1.00E-05
Procedure: as §1, §2

[8] = target: T4, Macaca fascicularis IL2Rγ extracellular domain expressed with a C-terminal myc-myc-hexahistidine tag (Macaca fascicularis); experiment: SPR Biacore 4000, anti-hFc-captured mAb, 37 C
T4 construct: whole entry is the tagged construct; also called mfIL-2Rg-MMH
T4 chain: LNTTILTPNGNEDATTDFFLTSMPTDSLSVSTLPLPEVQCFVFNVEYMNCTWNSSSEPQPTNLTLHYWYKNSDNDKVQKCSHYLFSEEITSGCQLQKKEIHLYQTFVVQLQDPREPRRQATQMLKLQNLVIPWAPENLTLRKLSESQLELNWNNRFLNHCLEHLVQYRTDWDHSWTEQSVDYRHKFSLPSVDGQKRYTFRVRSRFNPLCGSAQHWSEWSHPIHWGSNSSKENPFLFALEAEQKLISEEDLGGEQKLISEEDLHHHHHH
Summary of the method: as §3

[9] = target: T1, Human IL2Rγ extracellular domain …; experiment: SPR Biacore 4000, anti-hFc-captured mAb, 37 C
Summary of the method: as §3

[10] = target: T2, Rat IL2Rγ extracellular domain …; experiment: SPR Biacore 4000, anti-hFc-captured mAb, 37 C
Summary of the method: as §3

[11] = target: T3, Mouse IL2Rγ extracellular domain …; experiment: SPR Biacore 4000, anti-hFc-captured mAb, 37 C
Summary of the method: as §3

[12] = target: T5, human IL-2Rγ expressed on cells (human, UniProt P31785 23-369); experiment: flow cytometry on NK-92 cells, antibody at 10 µg/ml, MFI of sample over MFI of unstained; upper end, tied by Table 9-2 to the row printed H4H13841P
T5 construct: whole, on cells; on cells it stands together with the cytokine-specific receptor subunits; also called IL-2Rgamma; CD132
T5 sequence (looked up): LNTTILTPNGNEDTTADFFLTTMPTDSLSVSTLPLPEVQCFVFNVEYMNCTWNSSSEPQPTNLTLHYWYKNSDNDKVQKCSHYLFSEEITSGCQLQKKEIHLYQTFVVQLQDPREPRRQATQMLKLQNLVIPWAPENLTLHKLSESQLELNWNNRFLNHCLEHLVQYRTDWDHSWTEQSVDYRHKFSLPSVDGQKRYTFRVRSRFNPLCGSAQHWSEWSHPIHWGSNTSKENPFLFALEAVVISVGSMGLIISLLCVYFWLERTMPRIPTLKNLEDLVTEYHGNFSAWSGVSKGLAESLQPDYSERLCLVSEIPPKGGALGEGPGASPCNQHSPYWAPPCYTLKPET

[13] = target: T5, human IL-2Rγ expressed on cells; experiment: flow cytometry on NK-92 cells, antibody at 10 µg/ml, MFI of sample over MFI of unstained; lower end, tied to H4H12859P by Table 9-1
Procedure: (§4) For flow cytometry analyses, the cells were pre-incubated with mouse IgG at 100 μg/ml for 15 minutes at room temperature (RT) to block the binding of the antibodies to Fc receptors. […] Cells were washed, fixed using BD CytoFix™ (BD biosciences, #554655) and analyzed on an IQue® (Intellicyt®) Flow Cytometer or Accuri Flow cytometer (BD). […] The results were analyzed using ForeCyt® (IntelliCyt®) software to determine the geometric means of fluorescence (MFI) for viable cells. Binding ratios were calculated by normalizing the MFI of the test sample by the MFI of the unstained sample.

[14] = target: T5, human IL-2Rγ expressed on cells; experiment: flow cytometry on Jurkat cells, antibody at 10 µg/ml, MFI of sample over MFI of unstained; upper end, tied to H4H12889P by Table 9-1
Procedure: as §4

[15] = target: T5, human IL-2Rγ expressed on cells; experiment: flow cytometry on NK-92 cells, antibody at 10 µg/ml, MFI of sample over MFI of unstained; upper end, tied to H4H12889P by Table 9-1
Procedure: as §4

[16] = target: T5, human IL-2Rγ expressed on cells; experiment: flow cytometry on NK-92 cells, antibody at 10 µg/ml, MFI of sample over MFI of unstained; lower end, tied to H4H13538P by Table 9-2
Procedure: as §4

Kd [1]: ≤ 0.131 nM
t1/2 [1]: ≥ 1160 min
koff [2]: ≤ 1e-05 s⁻¹
koff [3]: ≤ 1e-05 s⁻¹
50 nM Ag Bound [4]: 11 RU
kon [4]: 76200 M⁻¹ s⁻¹
100 nM Ag Bound [5]: 19 RU
Kd [5]: 79.3 nM
koff [5]: 0.00237 s⁻¹
kon [5]: 29800 M⁻¹ s⁻¹
t1/2 [5]: 5 min
100 nM Ag Bound [6]: 25 RU
Kd [6]: 108 nM
koff [6]: 0.00367 s⁻¹
kon [6]: 34100 M⁻¹ s⁻¹
t1/2 [6]: 3.1 min
Kd [7]: ≤ 0.518 nM
t1/2 [7]: ≥ 1160 min
100 nM Ag Bound [8]: 13 RU
Kd [8]: 39.8 nM
koff [8]: 0.00148 s⁻¹
kon [8]: 37100 M⁻¹ s⁻¹
t1/2 [8]: 8 min
50 nM Ag Bound [9]: 8 RU
kon [9]: 19300 M⁻¹ s⁻¹
100 nM Ag Bound [10]: 8 RU
Kd [10]: 215 nM
koff [10]: 0.00835 s⁻¹
kon [10]: 38900 M⁻¹ s⁻¹
t1/2 [10]: 1.4 min
100 nM Ag Bound [11]: 6 RU
Kd [11]: 387 nM
koff [11]: 0.0293 s⁻¹
kon [11]: 75700 M⁻¹ s⁻¹
t1/2 [11]: 0.4 min
B1: H4H12908P (antibody, human IgG4 S228P, kappa, V domains shown)
VH: EVQLVESGGRLVQPGGSLRLSCEASGFTFSNYGMTWVRQAPGKGLEWVSVISGSDNRKYYAESVKGRFTISRDNSKNTLYLQMNSLRAEDTAVYYCAKLGYSRSSKDFYYGMDVWGQGTTVTVSS
VL: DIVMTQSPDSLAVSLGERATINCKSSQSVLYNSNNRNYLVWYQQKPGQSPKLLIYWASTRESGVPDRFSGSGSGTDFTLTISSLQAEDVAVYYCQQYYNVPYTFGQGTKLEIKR
notes: fully human anti-IL2Rgamma mAb, human IgG4 Fc

binding ratio [12]: 37
B2: H4H13541P (antibody, human IgG4 S228P, kappa, V domains shown)
VH: EVQLVESGGGVVRPGGSLRLSCAASGFIFDDYDMSWVRQPPGRGLEWVSGIDWFGGTRGYADSMKGRFTISRDNAKNSLYLQMNSLRVEDTAFYYCARGGAIVGAVTPFDYWGQGTLVTVSS
VL: DIQMTQSPSSLSASVGNRVTLSCRASQSINTYLSWYQQRPGKAPKLLIYAASSLQSGVPSRFSGSGAGTDFTLTISSLQPEDFATYYCQQSYSAPLTFGGGTKVEIKR
notes: fully human anti-IL2Rγ antibody, human IgG4

binding ratio [16]: 1
B5: H4H13538P (antibody, human IgG4 S228P, kappa, V domains shown)
VH: EVQLVESGGGLVQPGGSLGLSCAASGFTFSNYAMSWVRQAPGKGLEWVSAVSGGGGGTYYADSVKGRFTISRDNSKNTVLLQMNSLRAEDTAVYYCARGRTGGLDYWGPGTLVTVSS
VL: DVVMTQSPLSLPVIFGQPASISCRSSQSLVDSDGNTYLNWLQQRPGQSPRRLIYEVSNRDSGVPDRFSGSGSGTDFTLTISRVEAEDVGIYYCMQGTRWPPTFGGGTKVEIKR
notes: as for B2

The next lines start with the binder.

B3: H4H12859P (antibody, human IgG4 S228P, kappa, V domains shown)
VH: QVQLVQSGAEVKKPGASVRVSCKASGYTFTDYDIHWVRQAPGHGLEWMGWINPNSGGTNYAQKFQGRVTMTRDTSISTVYMDLSRLRSDDTAVYYCARADYSSSYYYYGMDVWGQGTTVTVSS
VL: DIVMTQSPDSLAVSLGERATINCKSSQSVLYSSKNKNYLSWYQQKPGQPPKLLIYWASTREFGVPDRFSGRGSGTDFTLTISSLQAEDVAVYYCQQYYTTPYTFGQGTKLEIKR
notes: as for B2
binding ratio [13]: 1

B4: H4H12889P (antibody, human IgG4 S228P, kappa, V domains shown)
VH: EVQLVESGGGLVQPGGSLRLSCAASGFIFSSYEMHWVRQAPGKGLEWISYISSSGTTIYYADSVKGRFTISRDNAKNSLYLHMNSLRAEDTAVYYCTRARITGTFDVFDIWGQGTMVTVSS
VL: DIQMTQSPSSLSASVGDRVTITCRASQSISSYLNWYQQKPGKAPKLLIFAASNLQSGVPSRFSGSRSGTDFTLTISSLQPEDFATYYCQQNYNIPYTFGQGTKLEIKR
notes: fully human anti-IL2Rγ antibody, human IgG4; also called REGN7257
binding ratio [14]: 19
binding ratio [15]: 94
